Assays:
Assay type in all cases: biochemical
[1] = HTP-analysis of yeast culture supernatants, no challenge (MUGal hydrolysis); settings: activity of the variant/activity of Rd4BB (SEQ ID NO: 15)
Outline: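 Activity read as 4-methylumbelliferyl α-D-galactopyranoside hydrolysis: fluorescence (355/448 nm) after sodium carbonate stop, following 30-180 min at 37° C with 2 mM MUGal stock at pH 4.6–4.8. Enzyme source is unchallenged culture supernatant of INVSc1 yeast expressing GLA variants, grown 66-84 h at 30° C.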

[2] = HTP-analysis of supernatants pretreated with acid (MUGal hydrolysis); settings: activity of the variant/activity of Rd4BB (SEQ ID NO: 15); challenge at pH 3.7
Outline: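 Fluorescence of MUGal hydrolysis (Ex. 355 nm, Em. 448 nm) is read after sodium carbonate quench. The enzyme source is INVSc1 yeast culture supernatant, first exposed to pH 3.3-4.3 McIlvaine buffer at 37° C. for 1-3 h, then reacted at pH 4.8 for 30-180 minutes.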

[3] = HTP-analysis of supernatants pretreated with base (MUGal hydrolysis); settings: activity of the variant/activity of Rd4BB (SEQ ID NO: 15); challenge at pH 9.65
Outline: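 GLA variants secreted from yeast INVSc1; culture supernatants pre-incubated with McIlvaine buffer pH 7.0–8.2 or 200 mM bicarbonate pH 9.1–9.7 at 37° C. for 1–18 h. Residual activity: MUGal (4 mM stock) hydrolysis at pH 4.3–4.8, 37° C., 30–180 min, carbonate quench; fluorescence Ex 355/Em 448 nm.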

B1: 430 (protein)
chain: LDNGLARTPTMGWLHWERFMCNLDCQEEPDSCISEKLFMEMAERMVSEGWKDAGYEYLCIDDCWMAPQRDSEGRLQADPQRFPHGIRQLANYVHSKGLKLGIYADVGNKTCAGFPGSFGYYDIDAQTFADWGVDLLKFDGCYCDSLENLADGYKHMSLALNRTGRSIVYSCEWPLYMWPFQKPNYTEIRQYCNHWRNFADIDDSWKSIKSILDWTSRNQERIVDVAGPGGWNDPDMLVIGNFGLSWDQQVTQMALWAIMAAPLFMSNDLRTISPQAKALLQDKDVIAINQDPLGKQGYQLRKGDNFEVWERPLSGDAWAVAIINRQEIGGPRSYTIPVASLGKGVACNPACFITQLLPVKRQLGFYNWTSRLKSHINPTGTVLLQLENTMQMSLKDLL
modifications: Synthetic Polypeptide sequence of Variant No. 430 of mature Human GLA
- Relative Activity of GLA Variants After No Challenge (NC) [1]: + (0.5 to 1.5 relative activity over Rd4BB (SEQ ID NO: 15))
- Relative Activity of GLA Variants After Challenge at pH 3.7 [2]: − (<0.5 relative activity over Rd4BB (SEQ ID NO: 15))
- Relative Activity of GLA Variants After Challenge at pH 9.65 [3]: + (0.5 to 1.5 relative activity over Rd4BB (SEQ ID NO: 15))

B2: 435 (protein)
chain: LDNGLARTPTMGWLHWERFMCNLDCQEEPDSCISEKLFMEMAERMVSEGWKDAGYEYLCIDDCWMAPQRDSEGRLQADPQRFPHGIRQLANYVHSKGLKLGIYADVGNKTCAGFPGSFGYYDIDAQTFADWGVDLLKFDGCYCDSLENLADGYKHMSLALNRTGRSIVYSCEWPLYMWPFQKPNYTEIRQYCNHWRNFADIDDSWKSIKSILDWTSRNQERIVDVAGPGGWNDPDMLVIGNFGLSWDQQVTQMALWALMAAPLFMSNDLRHISPQAKALLQDKDVIAINQDPLGKQGYQLRKGDNFEVWERPLSGDAWAVAIINRQEIGGPRSYTIPVASLGKGVACNPACFITQLLPVKRQLGFYNWTSRLKSHINPTGTVLLQLENTMQMSLKDLL
modifications: Synthetic Polypeptide sequence of Variant No. 435 of mature Human GLA
- Relative Activity of GLA Variants After No Challenge (NC) [1]: + (0.5 to 1.5 relative activity over Rd4BB (SEQ ID NO: 15))
- Relative Activity of GLA Variants After Challenge at pH 3.7 [2]: ++ (>1.5 to 2.5 relative activity over Rd4BB (SEQ ID NO: 15))
- Relative Activity of GLA Variants After Challenge at pH 9.65 [3]: − (<0.5 relative activity over Rd4BB (SEQ ID NO: 15))

B3: 434 (protein)
chain: LDNGLARTPTMGWLHWERFMCNLDCQEEPDSCISEKLFMEMAERMVSEGWKDAGYEYLCIDDCWMAPQRDSEGRLQADPQRFPHGIRQLANYVHSKGLKLGIYADVGNKTCAGFPGSFGYYDIDAQTFADWGVDLLKFDGCYCDSLENLADGYKHMSLALNRTGRSIVYSCEWPLYMWPFQKPNYTEIRQYCNHWRNFADIDDSWKSIKSILDWTSRNQERIVDVAGPGGWNDPDMLVIGNFGLSWDQQVTQMALWAIMAAPLFMSNDLDHISPQAKALLQDKDVIAINQDPLGKQGYQLRKGDNFEVWERPLSGDAWAVAIINRQEIGGPRSYTIPVASLGKGVACNPACFITQLLPVKRQLGFYNWTSRLKSHINPTGTVLLQLENTMQMSLKDLL
modifications: Synthetic Polypeptide sequence of Variant No. 434 of mature Human GLA
- Relative Activity of GLA Variants After No Challenge (NC) [1]: + (0.5 to 1.5 relative activity over Rd4BB (SEQ ID NO: 15))
- Relative Activity of GLA Variants After Challenge at pH 3.7 [2]: − (<0.5 relative activity over Rd4BB (SEQ ID NO: 15))
- Relative Activity of GLA Variants After Challenge at pH 9.65 [3]: − (<0.5 relative activity over Rd4BB (SEQ ID NO: 15))

B4: 432 (protein)
chain: LDNGLARTPTMGWLHWERFMCNLDCQEEPDSCISEKLFMEMAERMVSEGWKDAGYEYLCIDDCWMAPQRDSEGRLQADPQRFPHGIRQLANYVHSKGLKLGIYADVGNKTCAGFPGSFGYYDIDAQTFADWGVDLLKFDGCYCDSLENLADGYKHMSLALNRTGRSIVYSCEWPLYMWPFQKPNYTEIRQYCNHWRNFADIDDSWKSIKSILDWTSRNQERIVDVAGPGGWNDPDMLVIGNFGLSWDQQVTQMALWAIMAAPLFMSNDLRHISPQAKALLQDKDVIAINQDPLGKQGYQLRKGDNFEVWERPLSGDAWAVAIINRQEIGGPRSYTIPVASLGKGVACNPACFITQLLPVKRQLGFYNWTSRLKSHINPTGTVLLQLENTMQMSLKDLL
modifications: Synthetic Polypeptide sequence of Variant No. 432 of mature Human GLA
- Relative Activity of GLA Variants After No Challenge (NC) [1]: + (0.5 to 1.5 relative activity over Rd4BB (SEQ ID NO: 15))
- Relative Activity of GLA Variants After Challenge at pH 3.7 [2]: − (<0.5 relative activity over Rd4BB (SEQ ID NO: 15))
- Relative Activity of GLA Variants After Challenge at pH 9.65 [3]: + (0.5 to 1.5 relative activity over Rd4BB (SEQ ID NO: 15))

B5: 431 (protein)
chain: LDNGLARTPTMGWLHWERFMCNLDCQEEPDSCISEKLFMEMAERMVSEGWKDAGYEYLCIDDCWMAPQRDSEGRLQADPQRFPHGIRQLANYVHSKGLKLGIYADVGNKTCAGFPGSFGYYDIDAQTFADWGVDLLKFDGCYCDSLENLADGYKHMSLALNRTGRSIVYSCEWPLYMWPFQKPNYTEIRQYCNHWRNFADIDDSWKSIKSILDWTSRNQERIVDVAGPGGWNDPDMLVIGNFGLSWDQQVTQMALWAIMAAPLFMSNDLGHISPQAKALLQDKDVIAINQDPLGKQGYQLRKGDNFEVWERPLSGDAWAVAIINRQEIGGPRSYTIPVASLGKGVACNPACFITQLLPVKRQLGFYNWTSRLKSHINPTGTVLLQLENTMQMSLKDLL
modifications: Synthetic Polypeptide sequence of Variant No. 431 of mature Human GLA
- Relative Activity of GLA Variants After No Challenge (NC) [1]: + (0.5 to 1.5 relative activity over Rd4BB (SEQ ID NO: 15))
- Relative Activity of GLA Variants After Challenge at pH 3.7 [2]: − (<0.5 relative activity over Rd4BB (SEQ ID NO: 15))
- Relative Activity of GLA Variants After Challenge at pH 9.65 [3]: − (<0.5 relative activity over Rd4BB (SEQ ID NO: 15))

B6: 437 (protein)
chain: LDNGLARTPTMGWLHWERFMCNLDCQEEPDSCISEKLFMEMAERMVSEGWKDAGYEYLCIDDCWMAPQRDSEGRLQADPQRFPHGIRQLANYVHSKGLKLGIYADVGNKTCAGFPGSFGYYDIDAQTFADWGVDLLKFDGCYCDSLENLADGYKHMSLALNRTGRSIVYSCEWPLYMWPFQKPNYTEIRQYCNHWRNFADIDDSWKSIKSILDWTSRNQERIVDVAGPGGWNDPDMLVIGNFGLSWDQQVTQMALWAIMAAPEFMSNDLRHISPQAKALLQDKDVIAINQDPLGKQGYQLRKGDNFEVWERPLSGDAWAVAIINRQEIGGPRSYTIPVASLGKGVACNPACFITQLLPVKRQLGFYNWTSRLKSHINPTGTVLLQLENTMQMSLKDLL
modifications: Synthetic Polypeptide sequence of Variant No. 437 of mature Human GLA
- Relative Activity of GLA Variants After No Challenge (NC) [1]: + (0.5 to 1.5 relative activity over Rd4BB (SEQ ID NO: 15))
- Relative Activity of GLA Variants After Challenge at pH 3.7 [2]: + (0.5 to 1.5 relative activity over Rd4BB (SEQ ID NO: 15))
- Relative Activity of GLA Variants After Challenge at pH 9.65 [3]: − (<0.5 relative activity over Rd4BB (SEQ ID NO: 15))

B7: 436 (protein)
chain: LDNGLARTPTMGWLHWERFMCNLDCQEEPDSCISEKLFMEMAERMVSEGWKDAGYEYLCIDDCWMAPQRDSEGRLQADPQRFPHGIRQLANYVHSKGLKLGIYADVGNKTCAGFPGSFGYYDIDAQTFADWGVDLLKFDGCYCDSLENLADGYKHMSLALNRTGRSIVYSCEWPLYMWPFQKPNYTEIRQYCNHWRNFADIDDSWKSIKSILDWTSRNQERIVDVAGPGGWNDPDMLVIGNFGLSWDQQVTQMALWAIMAAPLFMSNDLRGISPQAKALLQDKDVIAINQDPLGKQGYQLRKGDNFEVWERPLSGDAWAVAIINRQEIGGPRSYTIPVASLGKGVACNPACFITQLLPVKRQLGFYNWTSRLKSHINPTGTVLLQLENTMQMSLKDLL
modifications: Synthetic Polypeptide sequence of Variant No. 436 of mature Human GLA
- Relative Activity of GLA Variants After No Challenge (NC) [1]: + (0.5 to 1.5 relative activity over Rd4BB (SEQ ID NO: 15))
- Relative Activity of GLA Variants After Challenge at pH 3.7 [2]: − (<0.5 relative activity over Rd4BB (SEQ ID NO: 15))
- Relative Activity of GLA Variants After Challenge at pH 9.65 [3]: − (<0.5 relative activity over Rd4BB (SEQ ID NO: 15))

B8: 433 (protein)
chain: LDNGLARTPTMGWLHWERFMCNLDCQEEPDSCISEKLFMEMAERMVSEGWKDAGYEYLCIDDCWMAPQRDSEGRLQADPQRFPHGIRQLANYVHSKGLKLGIYADVGNKTCAGFPGSFGYYDIDAQTFADWGVDLLKFDGCYCDSLENLADGYKHMSLALNRTGRSIVYSCEWPLYMWPFQKPNYTEIRQYCNHWRNFADIDDSWKSIKSILDWTSRNQERIVDVAGPGGWNDPDMLVIGNFGLSWDQQVTQMALWAIMAAPLFMSNDLRQISPQAKALLQDKDVIAINQDPLGKQGYQLRKGDNFEVWERPLSGDAWAVAIINRQEIGGPRSYTIPVASLGKGVACNPACFITQLLPVKRQLGFYNWTSRLKSHINPTGTVLLQLENTMQMSLKDLL
modifications: Synthetic Polypeptide sequence of Variant No. 433 of mature Human GLA
- Relative Activity of GLA Variants After No Challenge (NC) [1]: + (0.5 to 1.5 relative activity over Rd4BB (SEQ ID NO: 15))
- Relative Activity of GLA Variants After Challenge at pH 3.7 [2]: + (0.5 to 1.5 relative activity over Rd4BB (SEQ ID NO: 15))
- Relative Activity of GLA Variants After Challenge at pH 9.65 [3]: + (0.5 to 1.5 relative activity over Rd4BB (SEQ ID NO: 15))
